According to publication PMC11101737:

Molecular target: glucocorticoid receptor (GR) (UniProt P04150 1-777)
Assay: EMSA

Chain of glucocorticoid receptor (GR) (P04150 whole entry): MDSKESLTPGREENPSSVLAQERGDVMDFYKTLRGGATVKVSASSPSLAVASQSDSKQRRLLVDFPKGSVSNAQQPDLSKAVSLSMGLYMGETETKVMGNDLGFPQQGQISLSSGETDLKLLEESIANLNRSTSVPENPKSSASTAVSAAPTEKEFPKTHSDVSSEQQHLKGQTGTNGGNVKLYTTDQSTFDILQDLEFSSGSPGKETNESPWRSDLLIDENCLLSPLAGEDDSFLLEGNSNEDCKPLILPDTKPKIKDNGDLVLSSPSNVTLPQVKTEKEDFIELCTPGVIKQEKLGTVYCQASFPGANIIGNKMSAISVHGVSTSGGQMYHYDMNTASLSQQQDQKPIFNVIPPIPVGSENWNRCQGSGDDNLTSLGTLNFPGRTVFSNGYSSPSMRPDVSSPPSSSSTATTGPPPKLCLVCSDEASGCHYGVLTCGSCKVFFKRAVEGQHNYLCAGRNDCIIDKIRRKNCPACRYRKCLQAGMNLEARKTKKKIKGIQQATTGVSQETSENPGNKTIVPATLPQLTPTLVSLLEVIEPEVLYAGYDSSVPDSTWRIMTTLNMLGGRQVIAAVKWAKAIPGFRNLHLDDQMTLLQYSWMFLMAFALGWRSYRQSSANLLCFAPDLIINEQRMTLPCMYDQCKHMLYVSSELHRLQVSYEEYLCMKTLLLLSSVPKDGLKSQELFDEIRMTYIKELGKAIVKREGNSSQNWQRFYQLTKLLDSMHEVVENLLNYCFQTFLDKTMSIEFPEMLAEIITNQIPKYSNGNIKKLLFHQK

Binder	binding result
GRE (dsDNA) DNA 1: CTAGGCTGTACAGGATGTTCTGCCTAG DNA 2: CTAGGCAGAACATCCTGTACAGCCTAG	binds
AAV2 D-sequence (D) (dsDNA) DNA 1: CTCCATCACTAGGGGTTCCT DNA 2: AGGAACCCCTAGTGATGGAG	binds
